Paper PMC12457548, “Comparative Characterization of Plasmodium falciparum Small Heat Shock Proteins and Their Inhibition by Quercetin (3,3′,4′,5,7-Pentahydroxyflavone)” (The Protein Journal, 2025)

T1: PfHsp20b (Plasmodium falciparum, UniProt Q8IB02)
T1 construct: gene PF3D7_0816500; full-length, residues 1–173, N-terminal 6xHis
T1 sequence (Q8IB02 1-172): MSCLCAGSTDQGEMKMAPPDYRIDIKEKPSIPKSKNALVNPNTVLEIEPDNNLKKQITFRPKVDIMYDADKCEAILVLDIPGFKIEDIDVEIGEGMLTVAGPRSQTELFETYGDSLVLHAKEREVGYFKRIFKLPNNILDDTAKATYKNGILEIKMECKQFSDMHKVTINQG

B1: PfHsp20c (natural protein, Plasmodium falciparum, UniProt Q8I5T9 1-231, looked up)
chain: MSTTNILKPKIIIESSKEQGVGEKRSSTLSAPFEKNMFSTYSYSNPISNMRSSTHNEYKYNWTKYVNSSQIPHVDEYIKTFEGPNTTYYYETIPLKTNTNNIFEITPSQEELSRISYNPKIEIYSTCDFAVLMMDIPGVSKENLKVELEKGLLKVYGNKYKPHIEELEKRNEYHTKIIERLNEYYFCKIFQMPPAFSEGQNISCKLNNGELLVKILANELKTQKKVIDIQS
notes: Codon-harmonised synthetic gene in pQE30 between BamHI and HindIII; forms large oligomers in solution by DLS; also called PF3D7_1211100; P. falciparum Hsp20; source: E. coli XL1 Blue, purified (IMAC)
B2: PfHsp20a (natural protein, Plasmodium falciparum, UniProt Q8IES0 1-211, looked up)
chain: MSENNLSKDNNKNKRNEALENAGMLDTFFESMYDHMNRLDQYHSDMNRMMNSLRGYYMNNDFFRFFPNRRSLTDYDINRNRNHDLLLSKPFSSMFRRDGYSNVPAMDVLDKEKHLEIKMDVPGLNKEDVQINLDDGKLEISGEFKKSHEQKDEQQRYYIKERCESSFYRSFTLPENVSEDEIKATFKDGVLKIDIPKKDIPDKKKKKIEID
notes: Codon-harmonised synthetic gene in pQE30 between BamHI and HindIII; forms large oligomers in solution by DLS; also called PF3D7_1304500; P. falciparum Hsp20; source: E. coli XL1 Blue, purified (IMAC)
B3: PfHsp20b (natural protein, Plasmodium falciparum, UniProt Q8IB02 1-172, looked up)
chain: T1 sequence (Q8IB02 1-172)
notes: Codon-harmonised synthetic gene in pQE30 between BamHI and HindIII; forms oligomers in solution by DLS; also called PF3D7_0816500; P. falciparum Hsp20; source: E. coli XL1 Blue, purified (IMAC)

How the values were obtained:
PfHsp20b = target: T1, PfHsp20b; test: inhibition of chaperone activity (suppression of heat-induced MDH/CS aggregation); CD, DSF and DLS shifts also measured; format: biochemical
PfHsp20a = target: T2, PfHsp20a (Plasmodium falciparum, UniProt Q8IES0); test: as above; format: biochemical
T2 construct: gene PF3D7_1304500; full-length, residues 1–211, N-terminal 6xHis

PfHsp20c = target: T3, PfHsp20c (Plasmodium falciparum, UniProt Q8I5T9); test: as above; format: biochemical
T3 construct: gene PF3D7_1211100; full-length, residues 1–231, N-terminal 6xHis

[1] = target: the molecule itself; test: dynamic light scattering; as a1 but in the presence of 3 uM quercetin; 20 mM Tris pH 7.4, 300 mM NaCl, 25 °C; oligomer size estimated from the hydrodynamic radius
[2] = target: the molecule itself; test: dynamic light scattering; 0-6 uM protein alone in 20 mM Tris pH 7.4, 300 mM NaCl, 25 °C; oligomer size estimated from the average hydrodynamic radius with the fluidic webserver

Molecule	IC50 (PfHsp20b) [nM]	IC50 (PfHsp20a) [nM]	IC50 (PfHsp20c) [nM]	stoichiometry N [1]	stoichiometry N [2]
O=c1c(O)c(-c2ccc(O)c(O)c2)oc2cc(O)cc(O)c12 [quercetin, 3,3′,4′,5,7-pentahydroxyflavone]	550 ± 100	320 ± 110	110 ± 70		
B1				35	
B2				40	
B3				37	~38
